Article PMC3683045, “Induced tRNA Import into Human Mitochondria: Implication of a Host Aminoacyl-tRNA-Synthetase”

Target: preKARS2 (cytosolic precursor of human mitochondrial lysyl-tRNA synthetase) (human, UniProt Q15046-2 1-625)
Test: EMSA; 10 mM Mg2+; EMSA: 20 mM Tris-HCl pH 7.5, 150 mM NaCl, 10 mM MgCl2, 5 mM DTT, 10% glycerol, 0.1 mg/ml BSA, 30 C, 15 min; native 8% PAGE in 0.5x Tris-borate pH 8.3, 5% glycerol
Settings: protein: recombinant; tags: C-terminal 6xHis; chain copies: 2; label: 5'-32P; D-arm and F-hairpin with linker

Chain of preKARS2 (cytosolic precursor of human mitochondrial lysyl-tRNA synthetase) (Q15046 other isoform, or with tags, fused parts or gaps): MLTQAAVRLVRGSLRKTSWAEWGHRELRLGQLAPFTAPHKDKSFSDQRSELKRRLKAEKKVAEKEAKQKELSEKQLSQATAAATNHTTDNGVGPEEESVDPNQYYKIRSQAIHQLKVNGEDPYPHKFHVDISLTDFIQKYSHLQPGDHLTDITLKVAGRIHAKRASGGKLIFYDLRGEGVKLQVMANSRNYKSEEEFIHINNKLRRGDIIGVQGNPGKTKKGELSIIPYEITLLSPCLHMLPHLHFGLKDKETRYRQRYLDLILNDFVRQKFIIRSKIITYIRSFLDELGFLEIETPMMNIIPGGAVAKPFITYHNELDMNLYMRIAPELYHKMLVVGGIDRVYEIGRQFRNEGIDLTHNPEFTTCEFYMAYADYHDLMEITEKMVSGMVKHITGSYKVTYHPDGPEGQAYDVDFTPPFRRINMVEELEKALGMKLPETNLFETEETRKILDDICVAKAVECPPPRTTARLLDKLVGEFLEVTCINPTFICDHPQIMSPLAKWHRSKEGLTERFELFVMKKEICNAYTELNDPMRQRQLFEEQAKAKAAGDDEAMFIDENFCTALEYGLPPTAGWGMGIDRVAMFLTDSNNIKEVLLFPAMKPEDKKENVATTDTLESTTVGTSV

Binder	Kd
FD-L (structured_RNA) RNA: GCGCAAUCGGUAGCGCCUCUUUACAGUGCUUAGUUCUCGAGCCCCCUACAGGGCUCUU	400 ± 50 nM
FD-H (structured_RNA) RNA: GCGCAAUCGGUAGCGCAGUAAGCACUGUAAAUGAGCCCCCUACAGGGCUCUU	400 ± 50 nM
